Several values for one entry are separate records, joined by “and”; a condition that tells them apart may be missing. Equal values may be shown once. No end group written: not given here.

First the molecules themselves.
T1: recombinant His-tagged Der p1 (dust mite, UniProt P08176 99-320, limits assumed)
T1 construct: Recombinant His-tagged protein made by the applicant; also called Der p1-His; Der pl; not shown: His tag
T1 sequence (looked up): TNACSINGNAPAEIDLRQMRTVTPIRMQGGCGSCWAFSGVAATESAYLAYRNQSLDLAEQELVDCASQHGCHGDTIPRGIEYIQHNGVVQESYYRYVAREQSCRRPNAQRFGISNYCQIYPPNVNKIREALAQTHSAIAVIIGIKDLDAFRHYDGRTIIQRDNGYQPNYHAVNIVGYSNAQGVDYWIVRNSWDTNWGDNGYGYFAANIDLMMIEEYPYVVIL

T2: recombinant Fel d1-His (Felis catus, UniProt P30438+P30440)
T2 construct: His; made in house
T2 sequence (P30438 23-92): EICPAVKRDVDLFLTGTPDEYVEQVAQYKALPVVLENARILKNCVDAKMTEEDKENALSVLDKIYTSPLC
T2 sequence (P30440 18-109): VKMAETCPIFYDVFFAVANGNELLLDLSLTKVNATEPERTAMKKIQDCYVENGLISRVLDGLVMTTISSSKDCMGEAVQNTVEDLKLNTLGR

B1: SDAB22110-2-F1 (peptide)
peptide: AVVSFYP
modifications: also: biotinylated, site not given here
notes: 7-amino acid peptide from a phage display library
B2: SDAB22110-2-D9 (peptide)
peptide: LTGYGMS
modifications: also: biotinylated, site not given here
notes: as for B1
B3: SDAB22110-2-B2 (peptide)
peptide: GIHMALM
modifications: also: biotinylated, site not given here
notes: as for B1
B4: SDAB22110-2-G1 (peptide)
peptide: VVAFGIS
modifications: also: biotinylated, site not given here
notes: as for B1
B5: SDAB22110-2-D3 (peptide)
peptide: HSGPECG
modifications: also: biotinylated, site not given here
notes: as for B1
B6: SDAB22110-2-C3 (peptide)
peptide: YPTWAYR
modifications: also: biotinylated, site not given here
notes: as for B1
B7: Der p1-His: recombinant His-tagged dust mite allergen Der p1 (protein)
chain: T1 sequence (looked up)
modifications: left off: small tags and cut ends
B8: 370VH + 378VL: known Fel D1 positive control antibody, heavy chain SEQ ID NO: 64, light chain SEQ ID NO: 65 (antibody, V domains shown)
VH: EVQLVESGGGLAQPGGSLRLSCAASGFTFNNYAMTWVRQAPGKGLDWVSAISDSGRSTFSADSVKGRFTISRDNSKNTLYLQMDSLRAEDTALYYCAKHRNWNYPVFDYWGQGTLVTVSS
VL: DIQLTQSPSFLSASVGDRVTITCWASQGISSYLAWYQQKPGKAPKLLIYSASTLQSGVPSRFSGSGSGTEFTLTISSLQPEDFATYYCQQLNSYPFTFGPGTKVDIK

The first test has as its target T1, recombinant His-tagged Der p1. The test is described as follows: ELISA, Der p1 on plate, biotinylated peptide at 3.333, duplicate 1.
Details: not given
The procedure:
(§1) An ELISA was used to validate identified peptides. Der p1 was bound to the bottom of a plate. Different concentrations of the chosen (biotinylated) peptides were added and then washed. Then, HRP-streptavidin (which binds to the biotin) was added and an OD at 450 nm is measured. Duplicate measurements are separated by commas.
As to B1, the OD450 was found to be 0.221 OD450.

Regarding B2, the OD450 came out at 0.154 OD450.

As to B3, the OD450 is 0.132 OD450.

In the case of B4, the OD450 stood at 0.147 OD450.

With B5, the OD450 amounted to 2.77 OD450.

Consider B6, for which the OD450 was found to be 0.162 OD450.

The target is the same in the next test. The test is described as follows: ELISA, Der p1 on plate, biotinylated peptide at 10, duplicate 2.
Details: not given
The protocol:
as §1
As to B1, the OD450 came to 0.516 OD450.

As for B2, the OD450 is 0.357 OD450.

Turning to B3, the OD450 was found to be 0.289 OD450.

With B4, the OD450 stood at 0.293 OD450.

Take B5: the OD450 was determined as 3.57 OD450.

B6: the OD450 amounted to 0.376 OD450.

The test system of a further test is known Der p1 antibody (clone 10B9). The test is described as follows: Recombinant Der p1-His ELISA binding assay. Conditions: Der p1-His Concentration 0.00064 μg/mL. The procedure:
In order to obtain single variable domain on heavy chain, i.e., VHH, specific for dust mite allergen Der p1, a recombinant His-tagged Der p1 was prepared, which reached high purity, as shown via SDS-Page Western blotting in FIG. 8. To confirm this, an ELISA was performed measuring optical density when the recombinant Der p1-His is incubated with a known Der p1 antibody (clone 10B9). As summarized in Table 11, the recombinant Der p1-His was effectively bound by the antibody.
In the case of B7, the “OD at 450 nm” value is 0.13 and 0.12.

Still in this test, the particulars now being: Der p1-His Concentration 0.016 μg/mL.
Turning to B7, the “OD at 450 nm” value is 0.20 and 0.17.

The test is the same for the next values; noted with them: Der p1-His Concentration 0.08 μg/mL.
As to B7, the “OD at 450 nm” value was 0.58 and 0.49.

Staying with this test, now noted: Der p1-His Concentration 0.4 μg/mL.
In the case of B7, the “OD at 450 nm” value was 1.80 and 1.87.

The same test, now with this note: Der p1-His Concentration 2 μg/mL.
As to B7, the “OD at 450 nm” value was 4.03 and 4.31.

Still in this test, the particulars now being: Der p1-His Concentration 10 μg/mL.
With B7, the “OD at 450 nm” value is 4.37 and 4.40.

The target in a further test is T1, recombinant His-tagged Der p1. The test is described as follows: ELISA, Der p1 on plate, biotinylated peptide at 0.123, duplicate 1.
Details: not given
The procedure:
as §1
Regarding B1, the OD450 worked out at 0.073 OD450.

As to B2, the OD450 stood at 0.067 OD450.

For B3, the OD450 was determined as 0.078 OD450.

Turning to B4, the OD450 is 0.082 OD450.

As to B5, the OD450 was 0.866 OD450.

For the molecule B6, the OD450 was 0.065 OD450.

A further test has the same target. The test is described as follows: ELISA, Der p1 on plate, biotinylated peptide at 1.111, duplicate 2.
Details: not given
The procedure: as §1
Consider B1, for which the OD450 amounted to 0.125 OD450.

On to B2, for which the OD450 was found to be 0.102 OD450.

Consider B3, for which the OD450 stood at 0.089 OD450.

In the case of B4, the OD450 turned out to be 0.109 OD450.

For the molecule B5, the OD450 worked out at 2.25 OD450.

B6: the OD450 amounted to 0.102 OD450.

A further test has the same target. Kind of test: ELISA, Der p1 on plate, biotinylated peptide at 0.370, duplicate 2.
Details: not given
The procedure: as §1
For the molecule B1, the OD450 worked out at 0.073 OD450.

In the case of B2, the OD450 is 0.078 OD450.

On to B3, for which the OD450 came out at 0.071 OD450.

In the case of B4, the OD450 turned out to be 0.082 OD450.

B5: the OD450 was found to be 1.36 OD450.

As to B6, the OD450 was found to be 0.066 OD450.

For a further test the target is unchanged. Kind of test: ELISA, Der p1 on plate, biotinylated peptide at 0.041, duplicate 2.
Details: not given
The protocol: as §1
Consider B1, for which the OD450 was determined as 0.066 OD450.

For B2, the OD450 amounted to 0.059 OD450.

In the case of B3, the OD450 is 0.061 OD450.

On to B4, for which the OD450 turned out to be 0.062 OD450.

For the molecule B5, the OD450 was 0.463 OD450.

For B6, the OD450 amounted to 0.057 OD450.

The target is the same in a further test. Kind of test: ELISA, Der p1 on plate, biotinylated peptide at 0.370, duplicate 1.
Details: not given
The protocol:
as §1
As to B1, the OD450 is 0.076 OD450.

As to B2, the OD450 was 0.068 OD450.

In the case of B3, the OD450 turned out to be 0.083 OD450.

Regarding B4, the OD450 amounted to 0.088 OD450.

Turning to B5, the OD450 came out at 1.37 OD450.

In the case of B6, the OD450 stood at 0.072 OD450.

The next test has the same target. The test is described as follows: ELISA, Der p1 on plate, biotinylated peptide at 0.123, duplicate 2.
Details: not given
The protocol: as §1
In the case of B1, the OD450 is 0.075 OD450.

On to B2, for which the OD450 stood at 0.068 OD450.

Regarding B3, the OD450 turned out to be 0.066 OD450.

Consider B4, for which the OD450 came to 0.073 OD450.

B5: the OD450 turned out to be 0.906 OD450.

B6: the OD450 stood at 0.065 OD450.

For the next test the target is unchanged. Kind of test: ELISA, Der p1 on plate, biotinylated peptide at 30, duplicate 1.
Details: not given
The protocol:
as §1
On to B1, for which the OD450 was found to be 0.938 OD450.

Take B2: the OD450 was 0.751 OD450.

As to B3, the OD450 was determined as 0.536 OD450.

As for B4, the OD450 is 0.666 OD450.

B5: the OD450 worked out at 4.1 OD450.

As to B6, the OD450 came to 0.684 OD450.

A further test has the same target. The test is described as follows: ELISA, Der p1 on plate, biotinylated peptide at 30, duplicate 2.
Details: not given
The protocol:
as §1
For the molecule B1, the OD450 amounted to 0.805 OD450.

On to B2, for which the OD450 came out at 0.771 OD450.

For the molecule B3, the OD450 amounted to 0.537 OD450.

Regarding B4, the OD450 came out at 0.629 OD450.

Take B5: the OD450 turned out to be 4.13 OD450.

On to B6, for which the OD450 was 0.748 OD450.

A further test addresses T2, recombinant Fel d1-His. The test is described as follows: Recombinant Fel D1 His binding assay with positive control antibodies. On the set-up: species or system cat. Particulars: Volume of Fel D1-His 10 μL (concentration ~1 μg/μL). The protocol: In order to obtain single variable domain on heavy chain, i.e., VHH, specific for cat allergen Fel D1, a recombinant His-tagged Fel D1 was prepared, which reached high purity, as shown via SDS-Page Western blotting in FIG. 14. To confirm this, an ELISA was performed measuring optical density when the recombinant Fel d1-His is incubated with two known Fel D1 antibodies which are summarized in Table 18. As summarized in Table 19, the recombinant Fel d1-His was effectively bound by both antibodies.
In the case of B8, the “OD450 Using Positive Control” value is 4.47 and 4.44.

Still in this test, the particulars now being: Volume of Fel D1-His 50 μL (concentration ~1 μg/μL).
As to B8, the “OD450 Using Positive Control” value is 4.55 and 4.53.

The same test, now with this note: Volume of Fel D1-His 100 μL (concentration ~1 μg/μL).
In the case of B8, the “OD450 Using Positive Control” value is listed as 4.60.

The next test has as its target T1, recombinant His-tagged Der p1. The test is described as follows: ELISA, Der p1 on plate, biotinylated peptide at 0.041, duplicate 1.
Details: not given
The protocol: as §1
For the molecule B1, the OD450 came to 0.079 OD450.

As for B2, the OD450 stood at 0.061 OD450.

As for B3, the OD450 is 0.07 OD450.

For B4, the OD450 was found to be 0.057 OD450.

As for B5, the OD450 amounted to 0.468 OD450.

On to B6, for which the OD450 was 0.058 OD450.

The next test has the same target. The test is described as follows: ELISA, Der p1 on plate, biotinylated peptide at 1.111, duplicate 1.
Details: not given
The procedure: as §1
As to B1, the OD450 came to 0.131 OD450.

Turning to B2, the OD450 came to 0.095 OD450.

For B3, the OD450 turned out to be 0.089 OD450.

Turning to B4, the OD450 turned out to be 0.102 OD450.

As to B5, the OD450 came to 2.16 OD450.

Take B6: the OD450 was determined as 0.104 OD450.

For another test the target is unchanged. Kind of test: ELISA, Der p1 on plate, biotinylated peptide at 3.333, duplicate 2.
Details: not given
The protocol:
as §1
As to B1, the OD450 came to 0.209 OD450.

For the molecule B2, the OD450 was 0.154 OD450.

In the case of B3, the OD450 is 0.136 OD450.

Take B4: the OD450 stood at 0.145 OD450.

As for B5, the OD450 was determined as 2.88 OD450.

For the molecule B6, the OD450 worked out at 0.191 OD450.

The target is the same in another test. Kind of test: ELISA, Der p1 on plate, biotinylated peptide at 10, duplicate 1.
Details: not given
The protocol: as §1
Turning to B1, the OD450 amounted to 0.479 OD450.

Take B2: the OD450 amounted to 0.374 OD450.

Regarding B3, the OD450 came to 0.275 OD450.

As to B4, the OD450 worked out at 0.323 OD450.

For B5, the OD450 was 3.55 OD450.

In the case of B6, the OD450 stood at 0.346 OD450.

The values are drawn from US20240352105A1, “COMPOSITIONS AND METHODS FOR NEUTRALIZING ANTIGENS” (PACAGEN, INC, priority 2023, published 2024).
